Laboratory results: patent US7696313B2, “Prodrug compounds with isoleucine” (priority 2000, dated 2010)
Values joined by “and” are separate entries in the source; they are usually repeats but may differ in a detail not shown here. Identical values can stand only once. “Also recorded” adds a separate entry of the source.

Assays:
normal ICR mice = assay: Second single dose Maximum Tolerated Dose (SD-MTD) study, 49 days; conditions: for acute toxicity within 24 hours: any dose level; for SD-MTD (mg/kg Dox=): doxorubicin equivalent
Description: (§1) In a second single dose Maximum Tolerated Dose (SD-MTD) study, groups of five normal ICR mice were administered intravenously bolus doses of Suc-Ile-Ala-Leu-Dox. The mice were observed daily for 49 days and body weights measured twice weekly.
(§2) In a second single dose Maximum Tolerated Dose (SD-MTD) study, groups of five normal ICR mice were administered intravenous bolus doses of Suc-βAla-Ile-Ala-Leu-Dox. The mice were observed daily for 49 days and body weights measured twice weekly.

[1] = mouse, in vivo, iv, 100 umol/kg
Description: (§9) Plasma was obtained from three individual animals in each group at 5 minutes, 1, 2, 4, or 6 hr.

[2] = Metabolism and clearance in normal mice (plasma and urine, LC MS/MS); assay type: in vivo
Description: The metabolism and clearance of Suc-Ile-Ala-Leu-Dox was studied in normal mice. The mice were administered Suc-Ile-Ala-Leu-Dox at a single intravenous bolus dose of 117 mg/kg. Plasma samples were obtained at 1 and 4 hours. Plasma samples of 100 μl were transferred to Eppendorf tubes (1.5 mL) and an internal standard of daunorubicin (20 μL at 0.5 mg/ml) was added together with acetonitrile (400 μl). The tubes were capped and briefly vortexed followed by centrifugation at 14,000 rpm. 420 μl from each tube was removed and dried in vacuo. Each sample was reconstituted in 65 μl ammonium formate containing acetonitrile (20%) prior to analysis by reverse phase liquid chromatography in combination with tandem mass spectrometry (LC MS/MS).
Urine was collected at 2 and 24 hours post administration from pairs of mice in metabolic cages. Urine samples were diluted with ammonium formate containing acetonitrile (20%) to give a target analyte concentration within the practical range of the LC MS/MS assay. 30 μl of each diluted sample was placed in an Eppendorf tube (1.5 ml) and an internal standard of daunorubicin (20 μL at 0.5 mg/ml) was added together with 50 μl of ammonium formate containing acetonitrile (20%). Each sample was then analyzed by LC MS/MS.
An Agilent HP 1100. HPLC with DAD detector and Chemstation software was coupled to a PE Sciex API 365 mass spectrometer with an electrospray ion source.
HPLC was performed on a TSK-Gel Super ODS, […], 4.6×50 mm (TosoHaas) reversed phase column equipped with a […] C18 guard disc (Higgins Analytical) and stainless steel frit (Upchurch Scientific). Chromatography was performed at room temperature. The flow rate was 0.5 ml/min. Injection volume was 50 μl. Gradient elution was performed using a mobile phase of 20 mM ammonium formate with increasing amounts of acetonitrile. The API 365 was operated at 365° C. in a multiple reaction monitoring mode, set to monitor specific analyte parent-daughter ion pairs. Integration of chromatograms was performed by MacQuan software (PE Sciex) and quantitation of each analyte obtained by comparison to previously obtained calibration curves. Daunorubicin was used as an internal standard in all cases.
Percent of administered dose—plasma volume estimated at 40% of blood volume, which was calculated at 7% of animal's body weight.
Plasma samples were obtained at 1 and 4 hours from separate mice. Urine was collected at 2 and 24 hours post administration from pairs of mice in metabolic cages. The plasma and urine samples were prepared and analyzed as described in Example 4.

[3] = system: LNCaP (prostate carcinoma) cells; conditions: read-out: IC50 LNCaP; 48 hours, 3H-thymidine incorporation
Description: (§3) Adherent cells, LNCaP (prostate carcinoma), HT-29 (colon carcinoma) and PC-3 (prostate carcinoma), were cultured in DMEM media containing 10% heat inactivated fetal calf serum (FCS). On the day of the study the cells were detached from the plate with a trypsin solution. The collected cells were washed and resuspended at a concentration of 0.25×10^6 cells/ml in DMEM containing 10% FCS. 100 μl of cell suspension were added to 96 well plates and the plates were incubated for 3 hours to allow the cells to adhere. […] The plates were then incubated for 24 hours, pulsed with 10 μl of a 100 μCi/ml ^3H-thymidine and incubated for an additional 24 hours (total incubation time 48 hours). The plates were harvested using a 96 well Harvester (Packard Instruments) and counted on a Packard Top Count Counter. Four parameter logistic curves were fitted to the ^3H-thymidine incorporation as a function of drug molarity using Prism software to determine IC50 values.
(§4) Prostate carcinoma cells, LNCaP and PC-3 cells or colon carcinoma cells HT-29, were incubated with increasing concentration of the indicated compounds for 48 hours and cellular proliferation was measured using the ^3H-thymidine assay.

[4] = system: PC-3 (prostate carcinoma) cells; conditions: read-out: IC50 PC-3; 48 hours, 3H-thymidine incorporation
Description: as §3, §4

[5] = system: HT-29 (colon carcinoma) cells; conditions: read-out: IC50 HT29; 48 hours, 3H-thymidine incorporation
Description: as §3, §4

[6] = Initial single dose Maximum Tolerated Dose (MTD) study, 28 days; assay type: in vivo, mice; conditions: mouse, in vivo
Description: (§5) In our initial single dose Maximum Tolerated Dose (MTD) study, groups of five normal mice were administered intravenous bolus doses of Suc-Ile-Ala-Leu-Dox. The mice were observed daily for 28 days and body weights measured twice weekly.
(§6) The mice were observed daily for 28 days and body weights measured twice weekly.
(§7) In the single dose Maximum Tolerated Dose (MTD) studies, groups of normal mice were administered intravenous bolus doses of the prodrug. The mice were observed daily for 28 days and body weights measured twice weekly. The MTD was estimated to be equal to the highest dose that produced no death in mice after 28 days.

normal mice = assay: as above; assay type: in vivo; conditions: for single dose MTD fold higher than doxorubicin alone, after post-analysis: about 75% active compound, versus doxorubicin […] mg/kg; for acute toxicity / single-dose MTD, doxorubicin equivalent: intravenous bolus; for acute toxicity: all dose levels tested; for single-dose MTD, doxorubicin equivalent: normal mice; for single-dose MTD fold higher than doxorubicin alone: versus doxorubicin 4 mg/kg
Description: as §5, §6, §7

[7] = for Major Plasma Metabolite, Table 7 / Major Plasma Metabolite, Table 8: mice
Description: as §9

[8] = system: LNCaP, HT-29 and PC-3 cells; assay: 3H-thymidine proliferation assay, stated across the cell lines used; assay type: cell-based; conditions: 48 hours, 3H-thymidine incorporation; read-out: IC50 of the positive control in the cell lines used
Description: as §3, §4

[9] = system: doxorubicin-resistant colorectal carcinoma LS174t; conditions: tolerated dose under this dosing regimen; cited from earlier work
[10] = system: doxorubicin-resistant colorectal carcinoma LS174t; assay: LS174t human colorectal carcinoma xenograft efficacy; assay type: in vivo, nude mice; conditions: uncorrected
Description: (§8) In repeat-dose studies in tumor bearing mice, groups of ten mice were dosed with various amounts of prodrug for a total of five doses at either five day or 1 week intervals.

[11] = Metabolism and clearance in normal mice (plasma and urine, LC MS/MS); assay type: in vivo; conditions: after Suc-βAla-Ile-Ala-Leu-Dox 117 mg/kg
tumor bearing mice [12] = conditions: repeat dosing, 5 doses; cited from earlier work
[13] = Second single dose Maximum Tolerated Dose (SD-MTD) study, 49 days; conditions: mouse, in vivo, iv
Description: as §1, §2

tumor bearing mice [14] = assay: Repeat-dose tolerance (RD-MTD) in tumor bearing mice; assay type: in vivo
Description: as §8

[15] = as above; assay type: in vivo; conditions: mouse, in vivo
Description: as §8

[16] = after Suc-Ile-Ala-Leu-Dox 117 mg/kg, collected 0-2 hours
[17] = after Suc-Ile-Ala-Leu-Dox 117 mg/kg, collected 2-24 hours
[18] = 28 days, uncorrected doses, read-out: SD MTD (mg/kg), Table 7
[19] = SD MTD, doxorubicin equivalent dose, Table 8, value in parentheses, corrected results
[20] = SD MTD, molar equivalent dose of doxorubicin, Table 7, value in parentheses, uncorrected
[21] = corrected results, read-out: SD MTD (mg/kg), Table 8

CC[C@H](C)[C@H](NC(=O)CCC(=O)O)C(=O)N[C@@H](C)C(=O)N[C@@H](CC(C)C)C(=O)N[C@H]1C[C@H](O[C@H]2C[C@](O)(C(=O)CO)Cc3c(O)c4c(c(O)c32)C(=O)c2c(OC)cccc2C4=O)O[C@@H](C)[C@H]1O [Suc-Ile-Ala-Leu-Dox]
acute toxicity within 24 hours (normal ICR mice): no acute toxicity | SD-MTD (mg/kg Dox=) (normal ICR mice): 56 mg/kg Dox= and 58 mg/kg Dox= | AUC(0-t) [1]: 452 µM·h | Urine 2 hr, percent of administered dose [2, 16]: 3.9 % of administered dose | Urine 24 hr, percent of administered dose [2, 17]: 15.0 % of administered dose | IC50 [3]: 1100 nM | IC50 [4]: 88 µM | IC50 [5]: 47 µM | MTD [6, 18]: > 117 mg/kg | MTD [6, 19]: 56 mg/kg | MTD [6, 20]: > 70 mg/kg | MTD [6, 21]: 94 mg/kg | single dose MTD fold higher than doxorubicin alone, after post-analysis (normal mice): at least 3.3 fold | mortalities (normal mice; doses up to 117 mg/kg, 28 days): no mortalities | acute toxicity (normal mice): no acute toxicity | single-dose MTD, doxorubicin equivalent (normal mice; 28 days): 66 mg of doxorubicin/kg and 70 mg of doxorubicin/kg | single-dose MTD fold higher than doxorubicin alone (normal mice): at least 16 fold | Major Plasma Metabolite, Table 7 [7]: Leu-Dox | Major Plasma Metabolite, Table 8 [7]: Leu-Dox | relative exposure to doxorubicin ([7]; tripeptide vs tetrapeptide counterpart, leucine vs isoleucine compounds): two fold decrease

COc1cccc2c1C(=O)c1c(O)c3c(c(O)c1C2=O)C[C@@](O)(C(=O)CO)C[C@@H]3O[C@H]1C[C@H](N)[C@H](O)[C@H](C)O1 [Doxorubicin, reference compound]
IC50 [8]: 20 to 80 nM | efficacy of doxorubicin alone at its tolerated dose in LS174t model [9]: historically ineffective; also recorded: completely ineffective | Optimal Efficacy Repeat Dose (mg/kg) ([10]; five doses at five day or 1 week intervals, 60 days): 4 (4) mg/kg | Optimal Efficacy Repeat Dose, molar equivalent dose of doxorubicin ([10]; value in parentheses): 4 (4) mg/kg | Urine 2 hr, percent of administered dose [2, 16]: 0.06 % of administered dose | Urine 24 hr, percent of administered dose [2, 17]: 0.36 % of administered dose | Plasma 4 hr, percent of administered dose ([2]; mouse, in vivo, 4 h): 0.00 % of administered dose | Urine 2 hr, percent of administered dose ([11]; collected 0-2 hours): 0.21 % of administered dose | Urine 24 hr, percent of administered dose ([11]; collected 2-24 hours): 0.51 % of administered dose | tolerated repeat dose level of doxorubicin (standard safe RD efficacious dose) (tumor bearing mice [12]): 4 mg/kg and 3 mg/kg

CC[C@H](C)[C@H](NC(=O)CCNC(=O)CCC(=O)O)C(=O)N[C@@H](C)C(=O)N[C@@H](CC(C)C)C(=O)N[C@H]1C[C@H](O[C@H]2C[C@](O)(C(=O)CO)Cc3c(O)c4c(c(O)c32)C(=O)c2c(OC)cccc2C4=O)O[C@@H](C)[C@H]1O [Suc-βAla-Ile-Ala-Leu-Dox]
MTD [13]: 75 mg/kg | morbidity or mortality (normal ICR mice; 75 mg/kg dose group): no morbidity or mortality | animals euthanized due to weight loss or paralysis (normal ICR mice; 100 mg/kg dose, by Day 21, groups of five): three | acute toxicity within 24 hours (normal ICR mice): no acute toxicity | SD-MTD (mg/kg Dox=) (normal ICR mice): 42 mg/kg Dox= | SD-MTD Molar Ratio (Dox=) (normal ICR mice; fold higher on a molar basis than SD-MTD of doxorubicin): 2.6 | AUC(0-t) [1]: 326 µM·h | Urine 2 hr, percent of administered dose ([2]; mouse, in vivo): 12.7 % of administered dose | Urine 24 hr, percent of administered dose ([2]; mouse, in vivo): 4.81 % of administered dose | IC50 [3]: 190 nM | IC50 [4]: 57 µM | IC50 [5]: 38 µM | MTD [6, 18]: 75 mg/kg | MTD [6, 19]: 42 mg/kg | MTD [6, 20]: 42 mg/kg | MTD [6, 21]: 75 mg/kg | MTD ([6]; iv, intravenous bolus, normal mice, 28 days, read-out: single-dose Maximum Tolerated Dose (MTD)): 75 mg/kg | morbidity (normal mice; 75 mg/kg dose group): no morbidity | animals euthanized due to treatment-related toxicity (normal mice; 100 mg/kg dose group, Day 21, groups of five): two | animals euthanized due to treatment-related toxicity (normal mice; 125 mg/kg dose group, Day 14, groups of five): four | single dose MTD fold higher than doxorubicin alone, after post-analysis (normal mice): approximately 3.7 fold | acute toxicity (normal mice): No acute toxicity | single-dose MTD, doxorubicin equivalent (normal mice; 28 days): 40 mg of doxorubicin/kg | single-dose MTD fold higher than doxorubicin alone (normal mice): approximately 10 fold | Major Plasma Metabolite, Table 7 [7]: Leu-Dox | Major Plasma Metabolite, Table 8 [7]: Leu-Dox | RD-MTD, doxorubicin equivalent per dose (tumor bearing mice [14]; Q7Dx5 as printed): 30 mg/kg doxorubicin equivalent | RD-MTD as total exposure (tumor bearing mice [14]; after 5 doses (Q5DX5)): approximately 150 mg/kg doxorubicin equivalent | treated animals terminated due to signs of toxicity (tumor bearing mice [14]; high dose group (68 mg/kg, Q5DX5), groups of ten): Two | RD-MTD fold higher than RD-MTD / tolerated repeat dose level of doxorubicin (tumor bearing mice [14]; versus doxorubicin 4 mg/kg): at least 6.5 fold | MTD ([15]; Q7Dx5 as printed, based on efficacy study in Example 8, read-out: RD-MTD (repeat-dose MTD)): ~53 mg/kg | MTD ([15]; Repeat Dose MTD, doxorubicin equivalent dose, Table 8, value in parentheses, corrected results): 30 mg/kg | MTD ([15]; corrected results, Q 5D × 5 or Q 7D × 5, read-out: Repeat Dose MTD (mg/kg), Table 8): 53 mg/kg
